The record followed here is the nanobody polyreactivity screen of Harvey et al. (2022).

The data set is described as follows: yeast display, Sf9 membrane polyspecificity reagent, FACS + sequencing; frameworks hold sequencing errors. Summed up:
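Genes from sorted yeast were amplified by colony PCR, read by MiSeq 2 × 250 sequencing and filtered on CDR length. These cells carried a synthetic nanobody library in Saccharomyces cerevisiae BJ5465 and were sorted by FACS into low and high (top ~1%) gates on anti-HA and streptavidin fluorescence. Polyreactivity is labelled according to the gate of origin.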
“QVQLVESGGGLVQAGGRHRLTCAASGRTVGRYAMGWYRQAPGKEREFVAAISNRVGRTYYADSVKGRFTISRDNAKNTVYLQMNSLKPEDTAVYYCAADTAHVNVNYWGQGTQVTVSS”: the “polyreactivity (PSR sort gate)” value is “high polyreactivity”.

Take “QVQLVESGGGLVQAGGRLRFSCAASGNTFPHNTMGWYRKAPGKERELVSTNYADSVKGRFTISRDNAKNSVYLQMNSLKPEDTAVYYCHADGTFEYDYWGQGTQVTVSS”: the “polyreactivity (PSR sort gate)” value is recorded as “low polyreactivity”.

Take “QVQLVESGGGLVQAGGRLRISCAASGSIFKGYARGWSRQAPGKERELVAAISGSGTSTYYADSVKGRFTISRDNAKNTVYLQMNSLKPEDTAVYYCATGWYTVFSSRMYSWGQGTQVTVSS”: the “polyreactivity (PSR sort gate)” value is reported as “high polyreactivity”.

Turning to “QVQLVESGGGLVQAGGRLRISCAASGSIFKGYARGWSRQGPGKERELVAAISGSGTSTYYADSVKGRFTISRDNAKNTVYLQMNSLTPEDTAVYYCATGWYTVFSRRMYSWGQGTQVTVSS”, the “polyreactivity (PSR sort gate)” value was “high polyreactivity”.

On to “QVQLVESGGGLVQAGGRLRISCAASGSTFYFNAMGWYRQAPGKERELVAAITRGGSTYADSVKGRFTISRDNAKYTVYLQMNSMKPEDTAVYYCNAVYGVYDFIYWGQGTQVTVSS”, for which the “polyreactivity (PSR sort gate)” value is “low polyreactivity”.

On to “QVQLVESGGGLVQAGGRLRISCAASGTIFAYALGWYRPAPGKERELVAGISRRGGSTYYADSVKGRFTISRDNAKKTVYLQMKSLKPEDTAVYYCAADYYTLYPVYIKRYGYWGQGTQVTVSA”, for which the “polyreactivity (PSR sort gate)” value was “high polyreactivity”.

In the case of “QVQLVESGGGLVQAGGRLRLICAASGSTFRANIMRWSRQAPGKERELVAAITSGGGSTYYADSVKGRFTISRDNAKNTVYLQMNSLKPEDTAVYYCAARIYHDIDTRSYYWGQGTQVTVSS”, the “polyreactivity (PSR sort gate)” value was “high polyreactivity”.

For the sequence “QVQLVESGGGLVQAGGRLRLICAAYGSTFSLYALGWYRQAPGKERELVADINSGGGTYYADSVKGRFTISRDNAKNTVYLQMNSVKPEDTAVYYCNAPVARGEASYYWGHGTQVTVSS”, the “polyreactivity (PSR sort gate)” value is recorded as “high polyreactivity”.

“QVQLVESGGGLVQAGGRLRLSCAASASTIVGNAMGWYRQAPGKERELVATISNSGGRTYYADSVKGRFTISRDNSKYTVYLQMNSLKPEDTAVYYCNADIYPHDGYPWQGDYDYWGQGTQVTVSS”: the “polyreactivity (PSR sort gate)” value is on record as “low polyreactivity”.

With “QVQLVESGGGLVQAGGRLRLSCAASGFIIARNAMGWYRQAPGKERELVAASSASGGRTYYADSVKGRFTISRDNAKNTVYLQMNSLKPEDTAVYYCAARRDGRSGSFNYWGQGTQVTVSS”, the “polyreactivity (PSR sort gate)” value is “high polyreactivity”.

Regarding “QVQLVESGGGLVQAGGRLRLSCAASGFNFHYYAMGWYRQAPGKERELVAAISWSSGRTYYADSVKGRFTISRDNEKNTVYLQMNSLKPEDTAVYYCAASSYNRGDYWGQGTQVTVSS”, the “polyreactivity (PSR sort gate)” value is recorded as “high polyreactivity”.

As to “QVQLVESGGGLVQAGGRLRLSCAASGFTFIRSAMGWYRQAPGKERELVAAISWSDDTTYYADSVKGRFTISRDNAKNTVYLQMNSLKPEDTAVYYCAAEVWYSYAEYDYWGQGTQVTVSS”, the “polyreactivity (PSR sort gate)” value is reported as “high polyreactivity”.

As for “QVQLVESGGGLVQAGGRLRLSCAASGFTFKRNAMGWYRQAPGKERELVAAITWSGGSTYYADSVKGRFTISRDNAKNTVYLQMNSLKPEDTAVYYCAALYRSRYYAGDYLGQGTQVTVSS”, the “polyreactivity (PSR sort gate)” value is reported as “high polyreactivity”.

Take “QVQLVESGGGLVQAGGRLRLSCAASGFTFLDYAMGWYRQAPGKERELVASISSSGGSTRFADSVKGRFTISRDNAKNTVYLQMNSLKPEDTAVYYCNADVDLFGAAYGYDYWGQGTQVTVSS”: the “polyreactivity (PSR sort gate)” value is “low polyreactivity”.

In the case of “QVQLVESGGGLVQAGGRLRLSCAASGFTFNRNAMGWYRQAPGKERELVAAISDSGDNTYYADSVKGRFTISRDNAKNTVYLQMNSLKPEDTAVYYCATSFYGFSYHWFDYWGQGTQVTVSS”, the “polyreactivity (PSR sort gate)” value is “low polyreactivity”.

Consider “QVQLVESGGGLVQAGGRLRLSCAASGFTFPLYTMGWYRQEPGKERELVAAITWSGGSTYADSLKGRFTISRDNAKNTVYLQMNSLNPEDTEVYYCNRRLQPRGAGHNSWGQGTQVTVSS”, for which the “polyreactivity (PSR sort gate)” value is “high polyreactivity”.

For the sequence “QVQLVESGGGLVQAGGRLRLSCAASGFTFRYYAMGWYRQAPGKERELVAAISGSGVSTYYADSVKGRFTISRDNAKNTVYLQMNSLKPEDTAVYYCAAGYPGHYYKYDYWGQGTQVTVSS”, the “polyreactivity (PSR sort gate)” value is reported as “high polyreactivity”.

For the sequence “QVQLVESGGGLVQAGGRLRLSCAASGFTFSRNTLGWYRQAPGKERELVARITKRGGTTYYADSVKGRFTISRDNAKNTVYLQMNSLKPEDTAVYYCATVGQPSYRAPDGFNYWGQGTQVTVSS”, the “polyreactivity (PSR sort gate)” value was “high polyreactivity”.

Consider “QVQLVESGGGLVQAGGRLRLSCAASGFTFYDNAMGWYRQAPGKERELVAGINSGDSTFYAVSVKGRITISRDNAKNTVYLQMTSLKPEDTGFYYGAADWAWLQWSYDYWGQGTQVTVSS”, for which the “polyreactivity (PSR sort gate)” value is on record as “low polyreactivity”.

As for “QVQLVESGGGLVQAGGRLRLSCAASGFTFYYYAMGWYRQAPGKEREMVAAISRSGGSTYYADSVKGRFTISRDNAKNTVYLQMNSLKPEDTAVYYCNTLRRTWFQENDYWGQGTQVTVSS”, the “polyreactivity (PSR sort gate)” value is on record as “high polyreactivity”.

On to “QVQLVESGGGLVQAGGRLRLSCAASGFTIRLYTMGWYRQAPGKERELVAAITYSGDSTYYADSVKGRFTISRDNAKNTVYLQMNSLKPVDTAVYYCAARKYYARYYWGQGTQVTVSS”, for which the “polyreactivity (PSR sort gate)” value was “high polyreactivity”.

For the sequence “QVQLVESGGGLVQAGGRLRLSCAASGFTLVGYAMGWSRQAPGKERELVAAISSGGGSTYYADSVKGRFTISRDNAKNTVYLQMNSLKPEDTAVYYCAVYVDYYGYGYWGQGTQVTVSS”, the “polyreactivity (PSR sort gate)” value is “high polyreactivity”.

Take “QVQLVESGGGLVQAGGRLRLSCAASGGTFRLYTMASYRQAPGKERELVAGISSSSGSTYYADSVKGRFTISRDNAKNTVYLQMNSLKPEDTAVYYCAAYWPRSRYDYWGQGTQVTVSS”: the “polyreactivity (PSR sort gate)” value is recorded as “high polyreactivity”.

Consider “QVQLVESGGGLVQAGGRLRLSCAASGISFRFNAMGWYRQAPGKEREFVAAITYSGDSTYDADSVMGRFTISRDNAKNTVYLQKNSLKPEDTAVYYCAADYYAIYRRIFYYWGQGTQVTVSS”, for which the “polyreactivity (PSR sort gate)” value is on record as “low polyreactivity”.

For the sequence “QVQLVESGGGLVQAGGRLRLSCAASGITFFWNAMGWYRQAPGKERELVAAISSGAGTTYADSVKGRFTISRDNAKNTVYLQMNSLKPEDTAVYYCAKRVDAYGWWGRSSGVLSDYWGQGTQVTVSS”, the “polyreactivity (PSR sort gate)” value is listed as “low polyreactivity”.

As for “QVQLVESGGGLVQAGGRLRLSCAASGITFLNYAMGWYRPAPRKERELVAAISWSGGRTYYADSVKGRFTISRDNAKNTVFLQMNSLKPEDNAVYYCAADRGVNSYGYWGQGTQVTVSS”, the “polyreactivity (PSR sort gate)” value is reported as “high polyreactivity”.

Regarding “QVQLVESGGGLVQAGGRLRLSCAASGITFRSYAMGWYRQAPGKESELVAAIRSGGSTSYADSVKGRFTISRDNAKNTVYLQMNSLKPEDTAVYYCAAGGYVPLPDMTFWKFGYWGQGTQVTVSS”, the “polyreactivity (PSR sort gate)” value is “low polyreactivity”.

With “QVQLVESGGGLVQAGGRLRLSCAASGITFRYYAMGWYRQAPGKERELVAAITRSGTSTYYADSVKGRFTISRDNAKNTVYLQMNSLKPEDTAVYYCNAEYYHSSTGDDFDYWGQGTQVTVSS”, the “polyreactivity (PSR sort gate)” value is reported as “low polyreactivity”.

Take “QVQLVESGGGLVQAGGRLRLSCAASGITFYHYAMGWYRQAPGKERELVAAITRSGGRTYYAVSVKGRFTISRDTANNTVYVEMYSLKPEVTAVYYSAARWQKTAGRYYYWGQGTQVTGSS”: the “polyreactivity (PSR sort gate)” value was “high polyreactivity”.

In the case of “QVQLVESGGGLVQAGGRLRLSCAASGITFYRYAMGWYIQAPGKERELVASISSRGSSSYYADSVKGRFTISRDNAKNTVYLQRNSLKPEDTAVYYCAKSRGSRGFVASTYNYWGQGTQVTVSS”, the “polyreactivity (PSR sort gate)” value was “high polyreactivity”.

On to “QVQLVESGGGLVQAGGRLRLSCAASGLIFYDNMGWYRQPPGKERELVAAITWSGGSTYYADSVKGRFTISRDNAKNTVYLQMNSLKPEDTAVSYCNADLDSGYGSYDYWGQGTQVTVSS”, for which the “polyreactivity (PSR sort gate)” value was “low polyreactivity”.

As to “QVQLVESGGGLVQAGGRLRLSCAASGLIIEWYAMGWFRQAPGKERELVAAITGRGSSTFYADSVKGRFTISRDNAKNTVYLQMNSLKPEDTGVYYCAVATVKQYRSDYWGQGTQVTVSS”, the “polyreactivity (PSR sort gate)” value is listed as “low polyreactivity”.

On to “QVQLVESGGGLVQAGGRLRLSCAASGLIIKLYAMGWYRQAPGKERELVAAITDRGGSTYYADSVKGRFTISRDNAKNTVYLQMNSLKPEDTAVYYCAAPYAGWRDGGDYWGQGTQVTVSS”, for which the “polyreactivity (PSR sort gate)” value is “low polyreactivity”.

As for “QVQLVESGGGLVQAGGRLRLSCAASGLILSSNALGWYRQAPGKARELVAAITWDGDRTYADSVKGRFTISRDNAKNTVYLQQNSLKPEDTAVYYCAADKQYYWYDWSYEYWGQGTQVTVSW”, the “polyreactivity (PSR sort gate)” value is on record as “low polyreactivity”.

With “QVQLVESGGGLVQAGGRLRLSCAASGNTFGPYDMGWYRQAPGKERELVAGITSGGSTYYADSVKGRFTISRDNAKITVYLQMNSLKPEDTAVYYCAADYFLWVYWYDYWGQGTQVTVSS”, the “polyreactivity (PSR sort gate)” value is listed as “high polyreactivity”.

Regarding “QVQLVESGGGLVQAGGRLRLSCAASGNTFYLNAIGWYRQAPGKERELVAAITIRGDSTYYADSVKGRFTISRDNAKNTVYLQMISLKPEDTAVYSCAAPWAWNTGYRVYYGGQGTQVTVSS”, the “polyreactivity (PSR sort gate)” value is given as “high polyreactivity”.

On to “QVQLVESGGGLVQAGGRLRLSCAASGNTLRYYAMGWYRQAPGKERELVAAISESGGRTYYADSVKGRFTISRDNAKNTVYLQMNSLKPEDTAVYYCAASRWGGTWWYGYNYWGQGTQVTVSS”, for which the “polyreactivity (PSR sort gate)” value is listed as “high polyreactivity”.

For “QVQLVESGGGLVQAGGRLRLSCAASGRIFDTYAMGWYRQAPGKERELVASINWSAGSTYYADSVKGRFTISRDNAMNTVYLQMNSLKPEDTAVYYCATYSSYYWQSSYVYWEFDYWGQGTQVTVSS”, the “polyreactivity (PSR sort gate)” value is on record as “high polyreactivity”.

Take “QVQLVESGGGLVQAGGRLRLSCAASGRIFGVNAMGWYRQAPGKERELVAVISSGGSTYYADSVKGRFTISRDNAKNTVYLQMNSLKPEDTAVYYCNAVVGRWFPYNLSDYWGQGTQVTVSS”: the “polyreactivity (PSR sort gate)” value is on record as “low polyreactivity”.

Take “QVQLVESGGGLVQAGGRLRLSCAASGRIFKDNAMGWYRQAPGKERELVAAISSGASTSYADSVKGRFTISRDNAKNTVYLQMNSLKPEDTAVYYCNRGGDLYYPGWLFDYWGQGTQVTVSS”: the “polyreactivity (PSR sort gate)” value is recorded as “low polyreactivity”.

On to “QVQLVESGGGLVQAGGRLRLSCAASGRIFKTYAMGWYRQAPGKERELVAAISIRGGSTYYAVSVKGRFTISRDNAKNTVYLQMNSLKPEDTAVYYCNALYGRQIVDYDYWGQGTQVTVSS”, for which the “polyreactivity (PSR sort gate)” value is recorded as “high polyreactivity”.
